Experiment [1] deals with T1, 前列腺特异性膜抗原 (PSMA) on LNCaP cells (UniProt Q04609 1-750, limits assumed).
T1 construct: whole, on cells; Endogenous PSMA on LNCaP cells; MKN45 cells (no PSMA) served as negative cells; also called prostate specific membrane antigen
Nature of the experiment: cell ELISA on fixed LNCaP (PSMA+) against MKN45 (PSMA-) cells, HRP-anti-M13 detection. On the technique in general: An ELISA detects its analyte on a solid surface through an enzyme-linked reagent.

Experiment [2] has as its target T2, PSMA胞外区蛋白 (重组表达的前列腺特异性膜抗原膜外区) (UniProt Q04609 44-750).
T2 construct: extracellular domain; also called PSMA蛋白; PSMA抗原; not shown: His tag from vector pRAG2a (purified by HisTrap, detected by anti-His antibody)
Nature of the experiment: indirect phage-ELISA, PSMA extracellular region coated at 5 μg/mL, HRP-anti-M13 detection.

T2 sequence (Q04609 44-750): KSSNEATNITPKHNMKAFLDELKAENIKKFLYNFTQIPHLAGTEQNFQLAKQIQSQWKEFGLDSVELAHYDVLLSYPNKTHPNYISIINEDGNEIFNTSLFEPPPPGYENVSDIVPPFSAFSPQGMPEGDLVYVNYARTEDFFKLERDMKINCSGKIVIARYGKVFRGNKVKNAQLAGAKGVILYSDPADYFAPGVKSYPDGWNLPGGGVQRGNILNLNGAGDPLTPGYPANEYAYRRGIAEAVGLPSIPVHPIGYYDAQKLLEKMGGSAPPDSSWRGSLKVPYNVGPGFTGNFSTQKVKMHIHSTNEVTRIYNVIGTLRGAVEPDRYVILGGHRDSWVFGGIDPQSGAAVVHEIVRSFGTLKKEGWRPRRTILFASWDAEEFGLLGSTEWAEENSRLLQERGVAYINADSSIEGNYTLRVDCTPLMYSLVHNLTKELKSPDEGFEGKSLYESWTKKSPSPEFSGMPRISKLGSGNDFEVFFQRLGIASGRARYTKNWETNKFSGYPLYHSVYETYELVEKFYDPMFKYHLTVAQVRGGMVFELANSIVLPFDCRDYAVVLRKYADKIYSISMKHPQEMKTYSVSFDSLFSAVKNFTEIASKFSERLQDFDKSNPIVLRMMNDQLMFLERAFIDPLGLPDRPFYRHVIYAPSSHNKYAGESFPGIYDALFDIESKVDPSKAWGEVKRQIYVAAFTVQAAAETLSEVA
T1 sequence (Q04609 whole entry): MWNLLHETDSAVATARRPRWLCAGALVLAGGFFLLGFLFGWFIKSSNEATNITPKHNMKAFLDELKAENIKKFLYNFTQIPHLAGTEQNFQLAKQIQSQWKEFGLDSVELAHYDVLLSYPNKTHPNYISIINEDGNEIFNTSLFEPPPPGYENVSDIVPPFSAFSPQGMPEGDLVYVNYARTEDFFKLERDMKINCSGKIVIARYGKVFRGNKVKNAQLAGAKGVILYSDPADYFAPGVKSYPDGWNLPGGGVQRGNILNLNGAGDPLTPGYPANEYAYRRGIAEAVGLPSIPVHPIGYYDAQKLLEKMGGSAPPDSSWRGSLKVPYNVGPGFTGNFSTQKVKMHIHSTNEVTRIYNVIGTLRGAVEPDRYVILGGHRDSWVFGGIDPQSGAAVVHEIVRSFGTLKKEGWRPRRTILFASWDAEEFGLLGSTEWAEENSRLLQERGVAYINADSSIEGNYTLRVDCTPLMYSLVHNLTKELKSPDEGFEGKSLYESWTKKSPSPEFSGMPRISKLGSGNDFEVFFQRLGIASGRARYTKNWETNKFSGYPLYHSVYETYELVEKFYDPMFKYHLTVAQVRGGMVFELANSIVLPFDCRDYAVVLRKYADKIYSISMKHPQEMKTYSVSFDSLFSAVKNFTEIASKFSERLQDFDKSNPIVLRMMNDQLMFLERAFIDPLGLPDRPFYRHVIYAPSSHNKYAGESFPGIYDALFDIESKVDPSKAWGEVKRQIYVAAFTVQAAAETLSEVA

B1: 抗前列腺特异性膜抗原单域重链抗体噬菌体阳性克隆 (VHH)
VHH: QVQLVESGGGLVQAGGSLRLSCAASGRTFSRRDMGWFRQAPGKEREFVASISRSSAYTNYADSVKDRFTISRDNAKNTVYLQMYNLKPEDTAVYYCAAANYSTTRASAYRYWGQGTQVTVSS
notes: also called 针对前列腺特异性膜抗原的单域重链抗体阳性克隆; 展示本发明所述纳米抗体的噬菌体克隆; not shown: the phage coat protein fusion and any linker or tag are not described
Take B1: the binding result in experiment [1] and in experiment [2] was “binds” in each case.
